Experiments:
[1] = molecular target: activin Type II receptors (ActRIIA and ActRIIB) on A204/CAGAx12-Luc cells; test: cell-based or functional assay
[2] = molecular target: Activin A (homodimer of two inhibin betaA subunits) (human) (UniProt P08476); test: cell-based or functional assay
[3] = molecular target: Activin A (R&D Systems, #338-AC) (human) (UniProt P08476); test: SPR blocking: 5 nM Activin A + 30 nM binder over hActRIIB-hFc (Control 4) surface
[4] = molecular target: Activin A (R&D Systems, #338-AC) (human) (UniProt P08476); test: SPR blocking: 5 nM Activin A + 60 nM binder over hActRIIB-hFc (Control 4) surface
[5] = molecular target: Activin A (R&D Systems, #338-AC) (human) (UniProt P08476); test: SPR blocking: 5 nM Activin A + 1.88 nM binder over hActRIIB-hFc (Control 4) surface
[6] = molecular target: Activin A (R&D Systems, #338-AC) (human) (UniProt P08476); test: SPR blocking: 5 nM Activin A + 15 nM binder over hActRIIB-hFc (Control 4) surface
[7] = molecular target: Activin A (R&D Systems, #338-AC) (human) (UniProt P08476); test: SPR blocking: 5 nM Activin A + 0.94 nM binder over hActRIIB-hFc (Control 4) surface
[8] = molecular target: Activin A (R&D Systems, #338-AC) (human) (UniProt P08476); test: SPR blocking: 5 nM Activin A + 7.50 nM binder over hActRIIB-hFc (Control 4) surface
[9] = molecular target: Activin A (R&D Systems, #338-AC) (human) (UniProt P08476); test: SPR blocking: 5 nM Activin A + 0.00 nM binder over hActRIIB-hFc (Control 4) surface
[10] = molecular target: Activin A (R&D Systems, #338-AC) (human) (UniProt P08476); test: SPR blocking: 5 nM Activin A + 3.75 nM binder over hActRIIB-hFc (Control 4) surface

Activin A (homodimer of two inhibin betaA subunits) (human), sequence (P08476 311-426 limits assumed): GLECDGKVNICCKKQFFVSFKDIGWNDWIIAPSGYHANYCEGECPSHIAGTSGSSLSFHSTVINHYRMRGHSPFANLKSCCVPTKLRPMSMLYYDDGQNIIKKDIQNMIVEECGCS
Activin A (R&D Systems, #338-AC) (human), sequence (P08476 311-426 limits assumed): as above

activation of the A204/CAGAx12-Luc cell line (Smad 2/3-luciferase reporter), EC50 [1] | % bound RU w/ no inhibitor [3] | % bound RU w/ no inhibitor [4] | % bound RU w/ no inhibitor [5] | % bound RU w/ no inhibitor [6] | % bound RU w/ no inhibitor [7] | % bound RU w/ no inhibitor [8] | % bound RU w/ no inhibitor [9] | % bound RU w/ no inhibitor [10] | Substance | further results
 |  |  |  |  |  |  |  |  | GDF11 (from UniProt O95390 299-407) (ligand) | activation of A204/CAGAx12-Luc cells, EC50 [1]: 0.084 nM; activation of A204/CAGAx12-Luc cells, EC50 (separate day) [1]: 0.166 nM
 |  |  |  |  |  |  |  |  | isotype control antibody (Example 7) | action potential duration, cardiomyocytes chronically treated with 1 nM activin A plus isotype control [2]: 0.56 s; calcium flux falling time, cardiomyocytes treated with activin A plus isotype control [2]: 0.75 s; calcium flux rising time, cardiomyocytes treated with activin A plus isotype control [2]: 0.36 s; field potential amplitude, cardiomyocytes chronically exposed to activin A plus 25 nM isotype control [2]: 42.9 µV; field potential downstroke velocity, cardiomyocytes exposed to activin A plus 25 nM isotype control [2]: 0.019 V/sec; peak calcium handling amplitude, cardiomyocytes treated with activin A plus isotype control [2]: 484 RFU
4.4 nM |  |  |  |  |  |  |  |  | Activin AC (heterodimer of one betaA subunit and one betaC subunit) (from UniProt P55103 237-352) (ligand) | 
 | 111% | 115% | 105% | 110% | 105% | 107% | 100% | 104% | isotype control antibody | 
0.019 nM |  |  |  |  |  |  |  |  | Activin AB (heterodimer of one betaA subunit and one betaB subunit) (from UniProt P08476 311-426; P09529 293-407) (ligand) | 
 | 1% | 2% | 133% | 2% | 135% | 33% | 100% | 120% | Control 3 (murine anti-Activin A monoclonal antibody from R&D Systems, catalog number MAB3381) | 

From patent US20220056119A1
